The labels stand for the following.
B1: Azoarcus group I ribozyme (parent)
chain: GUGCCUUGCGCCGGGAAACCACGCAAGGGAUGGUGUCAAAUUCGGCGAAACCUAAGCGCCCGCCCGGGCGUAUGGCAACGCCGAGCCAAGCUUCGGCGCCUGCGCCGAUGAAGGUGUAGAGACUAGACGGCACCCACCUAAGGCAAACGCUAUGGUGAAGGCAUAGUCCAGGGAGUGGCGAAAGUCACACAAACCGG

The series covers variants of B1. In words: reverse-splicing fitness (ratio to wild type); higher = more active; in vitro selection; Mg2+ level not given. Summed up: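 An in vitro group I ribozyme library with randomized positions was T7-transcribed and gel-purified. In triplicate, 10 pmol RNA in EPPS pH 7.5 was reacted with 50 pmoles of a 30-nt RNA substrate for 1 h at 37 °C across several added MgCl2 levels (1–48 mM), then stopped with EDTA. Products were reverse transcribed from a substrate-complementary primer, PCR-amplified and sequenced (HiSeq 4000). Fitness is a variant's read proportion after selection over that before, normalised to wild type.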
Consider C82A A111U A120C C150G C169U U176A, for which the reverse-splicing fitness is 0.00757. In the case of C82A A111U A120C C150G C169U U176G, the reverse-splicing fitness came out at 0.0062. Regarding C82A A111U A120C C150G C169U U176C, the reverse-splicing fitness was 0.011. Then C82A A111U A120C A145C C150A C169G, with 0.00947; and C82A A111U A120C A145C C150A C169U, with 0.0111; and C82A A111U A120C A145C C150A C169A, with 0.01. On to C82A A111U A120C C150A C169G U176C, for which the reverse-splicing fitness was 0.0312. Under C82A A111U A120C C150A C169G U176G stands 0.00775; under C82A A111U A120C C150A C169G U176A, 0.0199; under C82A A111G C150U U176G, 0.0264.

Consider C82A A111G C150U U176A, for which the reverse-splicing fitness is 0.0842.

As to C82A A111G C150U U176C, the reverse-splicing fitness was 0.127. Under C82A A111U A120C A145G C150A C169A U176A stands 0.0221; under C82A A111U A120C A145G C150A C169A U176G, 0.0115; under C82A A111U A120C A145G C150A C169A U176C, 0.0279. Turning to C82A A111G C150A C169U U176A, the reverse-splicing fitness came out at 0.0172.

With C82A A111G C150A C169U U176G, the reverse-splicing fitness is 0.00815.

Take C82A A111G C150A C169U U176C: the reverse-splicing fitness amounted to 0.014. In the case of C82A A111U A120C A145G C150G C169A U176A, the reverse-splicing fitness came to 0.0164. Consider C82A A111U A120C A145G C150G C169A U176C, for which the reverse-splicing fitness came out at 0.016. Under C82A A111U A120C A145G C150G C169A U176G stands 0.00887. As to C82A A111G A145U C150U C169G U176C, the reverse-splicing fitness was determined as 0.015. Then C82A A111G A145U C150U C169G U176G, with 0.00627; and C82A A111G A145U C150U C169G U176A, with 0.0131.

Regarding C82A A111G C169G U176C, the reverse-splicing fitness was 0.0207. Consider C82A A111G C169G U176A, for which the reverse-splicing fitness turned out to be 0.0181. Then C82A A111G C169G U176G, with 0.00548; and C82A A111G C150G C169G U176C, with 0.00543. For the variant C82A A111G C150G C169G U176A, the reverse-splicing fitness was found to be 0.00836. In the case of C82A A111G C150G C169G U176G, the reverse-splicing fitness is 0.00592.

As to C82A A111G C150G, the reverse-splicing fitness stood at 0.024. Under C82A A111G C150A stands 0.0352; under C82A A111G C150U, 0.205.

With C82A A111U A120C A145C C150G C169U U176A, the reverse-splicing fitness was 0.00683. Then C82A A111U A120C A145C C150G C169U U176C, with 0.0102; and C82A A111U A120C A145C C150G C169U U176G, with 0.00543. On to C82A A111U A120C A145C C150A C169G U176G, for which the reverse-splicing fitness was 0.0101. Then C82A A111U A120C A145C C150A C169G U176C, with 0.0348; and C82A A111U A120C A145C C150A C169G U176A, with 0.0385; and C82A A111U A120C A145G C150A C169G U176A, with 0.0204. Under C82A A111U A120C A145G C150A C169G U176G stands 0.00858; under C82A A111U A120C A145G C150A C169G U176C, 0.0343; under C82A A111U A120C C150U C169U U176A, 0.0156. In the case of C82A A111U A120C C150U C169U U176C, the reverse-splicing fitness was found to be 0.0145.

As to C82A A111U A120C C150U C169U U176G, the reverse-splicing fitness was 0.00737. As to C82A A111U A120C A145U C150G, the reverse-splicing fitness was found to be 0.00883. Under C82A A111U A120C A145U C150U stands 0.0216; under C82A A111U A120C A145U C150A, 0.0107. Then C82A A111G C169A, with 0.00855; and C82A A111G C169U, with 0.0132; and C82A A111G C169G, with 0.00926.

For the variant C82A A111U A120C C150A U176A, the reverse-splicing fitness stood at 0.0129. Then C82A A111U A120C C150A U176G, with 0.00881.

Turning to C82A A111U A120C C150A U176C, the reverse-splicing fitness came out at 0.0239. Under C82A A111U A120C C150U C169G U176G stands 0.00747; under C82A A111U A120C C150U C169G U176C, 0.0205. For the variant C82A A111U A120C C150U C169G U176A, the reverse-splicing fitness is 0.0159. For the variant C82A A111U A120C A145U C150A C169G U176A, the reverse-splicing fitness is 0.0219. Then C82A A111U A120C A145U C150A C169G U176C, with 0.0263; and C82A A111U A120C A145U C150A C169G U176G, with 0.00723; and C82A A111U A120C A145C C150G C169G U176C, with 0.00882. As for C82A A111U A120C A145C C150G C169G U176A, the reverse-splicing fitness was found to be 0.0109. Take C82A A111U A120C A145C C150G C169G U176G: the reverse-splicing fitness is 0.0065.

Turning to C82A A111U A120C A145C C150U C169U U176G, the reverse-splicing fitness came to 0.00618. Then C82A A111U A120C A145C C150U C169U U176C, with 0.0133. In the case of C82A A111U A120C A145C C150U C169U U176A, the reverse-splicing fitness was found to be 0.0144. For the variant C82A A111G C150A C169A U176A, the reverse-splicing fitness came to 0.0203.

As for C82A A111G C150A C169A U176C, the reverse-splicing fitness is 0.0218. Then C82A A111G C150A C169A U176G, with 0.0074; and C82A A111U A120C A145C C150A U176G, with 0.00578; and C82A A111U A120C A145C C150A U176A, with 0.0115.

Consider C82A A111U A120C A145C C150A U176C, for which the reverse-splicing fitness was found to be 0.0167. Under C82A A111G A145U C150U C169G stands 0.00926.

Turning to C82A A111G A145U C150U C169U, the reverse-splicing fitness is 0.0118. Under C82A A111U A120C A145U C169A U176A stands 0.0227; under C82A A111U A120C A145U C169A U176G, 0.00804; under C82A A111U A120C A145U C169A U176C, 0.0235. On to C82A A111U A120C C150A C169G, for which the reverse-splicing fitness was found to be 0.0103. Under C82A A111U A120C C150A C169A stands 0.0122; under C82A A111U A120C C150A C169U, 0.0129. Regarding C82A A111U A120C A145C U176C, the reverse-splicing fitness was determined as 0.0202.

Consider C82A A111U A120C A145C U176A, for which the reverse-splicing fitness came to 0.0139.

For the variant C82A A111U A120C A145C U176G, the reverse-splicing fitness worked out at 0.00578.

For the origin of these results see the RNAGym collection of RNA variant scans (doi:10.1093/molbev/msab373).
